Consider two molecules from patent US20070178572A1, “Protein crystal structure” (priority 2003, published 2007).

Where two headings read alike, the source gives them in different places.

The subject of one series is H3 20mer peptide. In words: Analytical analysis of histone methylation (HPLC separation and MALDI of reaction products). In kind it is biochemical, human. The conditions noted are these: unmodified peptide and AdoMet, reaction driven essentially to completion. How it is done: The histone methyltransferase assay for analytical purposes was carried out under slightly different conditions than those described in Example 1.2. For analytical purposes the reaction was performed at 37° C. in 50 mM Tris-HCl, pH 8.0, 100 mM NaCl, 1 mM DTT, with 300 μM AdoMet (Fluka, Switzerland), 100 μM H3 20mer peptide ([…]), and with 1.5 μM enzyme. At desired time intervals an aliquot of the reaction was removed and quenched in 8 M urea and acidified with glacial acetic acid. The reaction products were separated by reverse phase HPLC (Jasco (UK) Ltd) on a Zorbax 300SB-C18 column (Rockland Technologies, Inc. USA) using a gradient from 0 to 40% acetonitrile in the presence of 0.05% trifluoroacetic acid at 55° C. Fractions from the peptide peak were analysed using a Reflex III MALDI time-of-flight mass spectrometer (Bruker Daltonik, GmbH, Germany) to obtain positive ion mass spectra.
The present inventors have further analysed the methylation reaction. Reaction mixtures were set up with unmodified peptide and AdoMet and conditions found where the reaction was driven essentially to completion. […] The reason for SET 7/9 acting as a mono-methyltransferase is readily apparent from the crystal structure now presented. The peptide used for crystallization was synthesised using mono-methylated lysine at position 4. […]

For series [1], the system named is histone H3 peptide. The conditions noted are these: previously reported (Wilson et al, 2002); cited from earlier work.
In series [2] the test system is histone H3 peptide. In words: HMTase activity measurements (histone methyltransferase assay, [methyl-3H] AdoMet, scintillation counting). The series is classed as biochemical, human. How it is done: The methyltransferase activity of SET7/9 and the various mutant constructs described in the text were determined in a reaction volume of 20 μl containing 3 μM AdoMet supplemented with [methyl-^3H] AdoMet (4 μCi) (Amersham Biosciences, UK) and […] purified methylase in reaction buffer (50 mM Tris pH 8.5, 100 mm NaCl, 1 mM EDTA, 1 mM DTT) with 50 μM histone peptide (see below). Following incubation at 37° C. for 60 min the reaction was vacuum blotted onto membrane (Hybond-C, Amersham Biosciences, UK) washed and activity measured by scintillation counting.

B1: SET 7/9: human enzyme that specifically methylates lysine-4 of histone H3 (protein, UniProt Q8WTS6 1-366, looked up)
Histone-lysine …: MDSDDEMVEEAVEGHLDDDGLPHGFCTVTYSSTDRFEGNFVHGEKNGRGKFFFFDGSTLEGYYVDDALQGQGVYTYEDGGVLQGTYVDGELNGPAQEYDTDGRLIFKGQYKDNIRHGVCWIYYPDGGSLVGEVNEDGEMTGEKIAYVYPDERTALYGKFIDGEMIEGKLATLMSTEEGRPHFELMPGNSVYHFDKSTSSCISTNALLPDPYESERVYVAESLISSAGEGLFSKVAVGPNTVMSFYNGVRITHQEVDSRDWALNGNTLSLDEETVIDVPEPYNHVSKYCASLGHKANHSFTPNCIYDMFVHPRFGPIKCIRTLRAVEADEELTVAYGYDHSPPGKSGPEAPEWYQVELKAFQATQQK
As to B1, the “methylation state of reaction product” value in the series on H3 20mer peptide is listed as “only mono-methylated peptide”.

B2: Y245>A: SET 7/9 histone methyltransferase with point mutation of Tyr-245 to alanine (protein, UniProt Q8WTS6 1-366, looked up, variant Y245A)
Histone-lysine …: MDSDDEMVEEAVEGHLDDDGLPHGFCTVTYSSTDRFEGNFVHGEKNGRGKFFFFDGSTLEGYYVDDALQGQGVYTYEDGGVLQGTYVDGELNGPAQEYDTDGRLIFKGQYKDNIRHGVCWIYYPDGGSLVGEVNEDGEMTGEKIAYVYPDERTALYGKFIDGEMIEGKLATLMSTEEGRPHFELMPGNSVYHFDKSTSSCISTNALLPDPYESERVYVAESLISSAGEGLFSKVAVGPNTVMSFANGVRITHQEVDSRDWALNGNTLSLDEETVIDVPEPYNHVSKYCASLGHKANHSFTPNCIYDMFVHPRFGPIKCIRTLRAVEADEELTVAYGYDHSPPGKSGPEAPEWYQVELKAFQATQQK
In the case of B2, the HMTase activity result with histone H3 peptide [1] is given as “dramatic reduction in HMTase activity”; in the series on histone H3 peptide [2] (mono-methylated Lys-4 substrate), “substantial activity”; in the series with histone H3 peptide [2] (unmodified lysine substrate) it was “greatly reduced activity”.
